Laboratory results: US20230036213A1

Target: HLA-DR (human)
Test: cell-based or functional assay

GEFRYYPNIIAKGVG [HPIV3 Matrix Epitope Peptide 84 (…)] was tested, and the IFN-gamma production, decrease in the presence of HLA-DR blocking antibodies was 32 to 80%.
